We go through 7 substances from patent US20250320281A1.

Assay [1] addresses JR-FL gp120 ΔV1/ΔV2 (HIV-1). Briefly: ELISA, antigen-coated wells. For orientation: In an ELISA, binding on a coated surface is turned into a signal by an enzyme label.
Assay [2] addresses HIV-1 Env of isolate MGRM-Chronic-B-001 (subtype B pseudovirus) (HIV-1). Briefly: cell-based or functional assay.
For assay [3], the target named is HIV-1 Env of isolate MGRM-D-012 (pseudovirus) (HIV-1). The assay is described as follows: cell-based or functional assay.
Assay [4] addresses HIV-1 Env of isolate CAAN.A2 (subtype B pseudovirus) (HIV-1). The assay is described as follows: cell-based or functional assay.
Assay [5] concerns the target HIV-1 Env of isolate 92UG001 (pseudovirus) (HIV-1). The assay is described as follows: cell-based or functional assay.
Assay [6] addresses HIV-1 Env of isolate MGRM-Chronic-B-004 (subtype B pseudovirus) (HIV-1). The assay is described as follows: cell-based or functional assay.
For assay [7], the target named is aMLV envelope (pseudovirus, negative control). Briefly: cell-based or functional assay.
Assay [8] has as its target HIV-1 Env of isolate SC422661.8 (subtype B pseudovirus) (HIV-1). The assay is described as follows: cell-based or functional assay.
The target in assay [9] is HIV-1 Env of isolate MGRM-Chronic-B-024 (subtype B pseudovirus) (HIV-1). Briefly: cell-based or functional assay.
Assay [10] has as its target HIV-1 Env of isolate MGRM-Chronic-B-002 (subtype B pseudovirus) (HIV-1). Briefly: cell-based or functional assay.
In assay [11] the target is HIV-1 Env of isolate MGRM-D-028 (pseudovirus) (HIV-1). Briefly: cell-based or functional assay.
Assay [12] concerns the target HIV-1 Env of isolate APV_17 (subtype B pseudovirus) (HIV-1). The assay is described as follows: cell-based or functional assay.
Assay [13] deals with HIV-1 Env of isolate MGRM-F1-013 (HIV-1). The assay is described as follows: cell-based or functional assay.
Assay [14] concerns the target HIV-1 JRFL Env (pseudovirus, clade B) (HIV-1). Briefly: cell-based or functional assay.
Assay [15] deals with HIV-1 APV6 Env (pseudovirus, clade B) (HIV-1). Briefly: cell-based or functional assay.
In assay [16] the target is HIV-1 93UG077 Env (pseudovirus, clade A) (HIV-1). The assay is described as follows: cell-based or functional assay.
Assay [17] addresses HIV-1 MGRM-D-001 Env (pseudovirus) (HIV-1). Briefly: cell-based or functional assay.
The target in assay [18] is HIV-1 93UG077 Env (pseudovirus) (HIV-1). Briefly: cell-based or functional assay.
The target of assay [19] is HIV-1 92BR020 envelope glycoprotein (Env) on pseudovirus (HIV-1). Briefly: cell-based or functional assay.
The target of assay [20] is HIV-1 Env of isolate MGRM-D-001 (clade D), on pseudovirus (HIV-1). The assay is described as follows: cell-based or functional assay.
In assay [21] the target is HIV-1 Env of isolate MGRM-AG-005 (clade AG), on pseudovirus (HIV-1). Briefly: cell-based or functional assay.
For assay [22], the target named is HIV-1 envelope glycoprotein (Env) of isolate MGRM-C-026 (HIV-1). Briefly: cell-based or functional assay.
The target in assay [23] is HIV-1 envelope glycoprotein (Env) of isolate MGRM-C-025 (HIV-1). Briefly: cell-based or functional assay.
Assay [24] deals with HIV-1 Env of isolate MG RM-D-011 (HIV-1). Briefly: cell-based or functional assay.
Assay [25] deals with HIV-1 envelope glycoprotein (Env) of isolate MGRM-C-013 (HIV-1). The assay is described as follows: cell-based or functional assay.
Assay [26] concerns the target HIV-1 Env of isolate CAAN.A2 (subtype B) (HIV-1). The assay is described as follows: cell-based or functional assay.
Assay [27] has as its target HIV-1 Env of isolate MGRM-Chronic-B-010 (subtype B) (HIV-1). The assay is described as follows: cell-based or functional assay.
Assay [28] deals with HIV-1 Env of isolate MGRM-A-009 (subtype A) (HIV-1). Briefly: cell-based or functional assay.
The target in assay [29] is HIV-1 Env of isolate PVO.4 (subtype B) (HIV-1). The assay is described as follows: cell-based or functional assay.
The target of assay [30] is HIV-1 Env of isolate 92UG037 (HIV-1). Briefly: cell-based or functional assay.
For assay [31], the target named is HIV-1 Env of isolate 92UG001 (HIV-1). Briefly: cell-based or functional assay.
Assay [32] concerns the target HIV-1 Env of isolate MG RM-D-018 (HIV-1). The assay is described as follows: cell-based or functional assay.
The target of assay [33] is HIV-1 Env of isolate MGRM-AG-005 (subtype AG) (HIV-1). The assay is described as follows: cell-based or functional assay.
The target of assay [34] is HIV-1 Env of isolate MG RM-D-013 (HIV-1). The assay is described as follows: cell-based or functional assay.
The target of assay [35] is HIV-1 Env of isolate MGRM-AG-011 (subtype AG) (HIV-1). Briefly: cell-based or functional assay.
Assay [36] concerns the target HIV-1 Env of isolate MG RM-D-022 (HIV-1). Briefly: cell-based or functional assay.
The target in assay [37] is HIV-1 Env of isolate MGRM-AE-006 (subtype AE) (HIV-1). The assay is described as follows: cell-based or functional assay.

5329_C19 (PGT-136) (antibody), sequence (VH): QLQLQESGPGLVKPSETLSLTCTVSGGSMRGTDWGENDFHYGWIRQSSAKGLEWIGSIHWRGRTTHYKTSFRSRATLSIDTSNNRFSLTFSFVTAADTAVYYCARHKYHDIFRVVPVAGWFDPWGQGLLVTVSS
5329_C19 (PGT-136) (antibody), sequence (VL): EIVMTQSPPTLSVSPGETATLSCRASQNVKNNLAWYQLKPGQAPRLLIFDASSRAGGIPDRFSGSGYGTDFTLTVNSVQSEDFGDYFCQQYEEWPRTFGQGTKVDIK

4838_L06 (PGT-121) (antibody): the EC50 (commonly the concentration that produces a half-maximal response) in [1] was determined as 0.2 µg/mL. The IC50 (µg/mL), pseudovirus neutralization turned out to be 0.102 µg/mL in [2]; 0.011 µg/mL in assay [4]; 0.009 µg/mL in assay [6]; 0.098 µg/mL in assay [8]; 0.195 µg/mL in [9]; 0.386 µg/mL in assay [10]. The IC50 (µg/mL), pseudovirus neutralization in [12] turned out to be 0.066 µg/mL; in assay [13], 0.083 µg/mL. For the same substance, the results for the IC50, pseudovirus neutralization in assay [3], in [5] and in [11] were greater than 50 µg/mL, greater than 50 µg/mL and 0.009 µg/mL, respectively. In assay [7], this substance displayed a neutralization IC50 (pseudovirus) greater than 10 µg/mL.
In assay [1], 4858_P08 (PGT-123) (antibody) had an EC50 of 0.3 µg/mL. Also, the IC50 (µg/mL), pseudovirus neutralization in [2] is 0.15 µg/mL; in assay [4], 0.015 µg/mL; in assay [6], 0.008 µg/mL; in assay [8], 0.039 µg/mL; in assay [9] it was greater than 50 µg/mL; in assay [10], 0.234 µg/mL. Moreover, the figures for the IC50 (µg/mL), pseudovirus neutralization in [12] and in assay [13] were 0.114 µg/mL and 0.08 µg/mL, respectively. The IC50 neutralization was 0.0283 µg/mL in assay [14], 0.0328 µg/mL in assay [15] and 0.0303 µg/mL in assay [16]. Further, the IC50, pseudovirus neutralization in [3] is greater than 50 µg/mL; in [5], greater than 50 µg/mL; in assay [20], 0.215 µg/mL; in assay [21], 0.104 µg/mL; in assay [11], 0.132 µg/mL. The neutralization IC50 (pseudovirus) was 0.215 µg/mL in assay [17], 0.0303 µg/mL in [18] and greater than 10 µg/mL in [7]. Also, in [19], the neutralization IC50 was determined as 0.013 µg/mL. The neutralization IC80 in [19] worked out at 0.039 µg/mL. In addition, in assay [19], the neutralization IC90 was determined as 0.0741 µg/mL. The same substance showed a neutralization IC95 in [19] of 0.134 µg/mL.
Take 4877_D15 (PGT-122) (antibody): the EC50 in assay [1] was 0.3 µg/mL. The IC50 (µg/mL), pseudovirus neutralization was found to be 0.138 µg/mL in assay [2]; 0.011 µg/mL in assay [4]; 0.008 µg/mL in assay [6]; 0.103 µg/mL in [8]; 2.31 µg/mL in [9]; 1.8 µg/mL in assay [10]. Further, the IC50 (µg/mL), pseudovirus neutralization in assay [12] came out at 0.25 µg/mL; in assay [13], 0.152 µg/mL. The results for the IC50 neutralization in assay [14], in assay [15] and in assay [16] were 0.0471 µg/mL, 0.0851 µg/mL and 0.191 µg/mL, respectively. In addition, the IC50, pseudovirus neutralization in assay [3] is greater than 50 µg/mL; in assay [5] it was greater than 50 µg/mL; in assay [20], 0.867 µg/mL; in assay [21] it was greater than 10 µg/mL; in assay [11], 3.34 µg/mL. The neutralization IC50 (pseudovirus) in assay [17] was 0.867 µg/mL; in [18], 0.191 µg/mL; in assay [7] it was greater than 10 µg/mL.
Turning to 5123_A06 (PGT-125) (antibody), the EC50 in assay [1] came to 0.6 µg/mL. For the same substance, the IC50 (µg/mL), pseudovirus neutralization was greater than 50 µg/mL in assay [2]; 5.47 µg/mL in [4]; 0.007 µg/mL in assay [6]; 30.1 µg/mL in [8]; greater than 50 µg/mL in assay [9]; 0.064 µg/mL in assay [10]. Also, the results for the IC50 (µg/mL), pseudovirus neutralization in assay [12] and in assay [13] were 8.06 µg/mL and greater than 50 µg/mL, respectively. The IC50 neutralization in [14] came out at 0.0156 µg/mL; in [15] it was 0.0359 µg/mL; in [16] it was 0.0262 µg/mL. The IC50, pseudovirus neutralization was greater than 50 µg/mL in [3]; greater than 50 µg/mL in [5]; 2.31 µg/mL in assay [20]; greater than 10 µg/mL in assay [21]; greater than 50 µg/mL in [11]. Also, the neutralization IC50 (pseudovirus) is 2.31 µg/mL in assay [17], 0.0262 µg/mL in [18] and greater than 10 µg/mL in [7].
Substance 5145_B14 (PGT-127) (antibody) came in with an EC50 in assay [1] of 0.7 µg/mL. Also, the IC50 (µg/mL), pseudovirus neutralization in assay [2] was greater than 50 µg/mL; in assay [4] it was 0.371 µg/mL; in assay [6] it was 0.018 µg/mL; in [8], 36.7 µg/mL; in [9] it was greater than 50 µg/mL; in assay [10] it was 0.279 µg/mL. Also, the results for the IC50 (µg/mL), pseudovirus neutralization in [12] and in assay [13] were 10.4 µg/mL and greater than 50 µg/mL, respectively. For the same substance, the IC50, pseudovirus neutralization in assay [3], in [5] and in assay [11] was greater than 50 µg/mL in each case.
Take 5329_C19 (PGT-136) (antibody): the EC50 in assay [1] amounted to 0.3 µg/mL. Also, the IC50 (µg/mL), pseudovirus neutralization is 0.006 µg/mL in assay [22]; greater than 50 µg/mL in assay [23]; greater than 50 µg/mL in [24]; greater than 50 µg/mL in [25]; greater than 50 µg/mL in assay [28]; greater than 50 µg/mL in assay [31]. For the same substance, the IC50 (µg/mL), pseudovirus neutralization in [32], in assay [33], in assay [34], in [35], in assay [36] and in [37] was greater than 50 µg/mL throughout. Also, the IC50 neutralization was greater than 10 µg/mL in assay [14]; greater than 50 µg/mL in [26]; greater than 50 µg/mL in assay [27]; greater than 10 µg/mL in assay [15]; greater than 10 µg/mL in [16]; greater than 50 µg/mL in assay [29]. Moreover, the IC50 (neutralizing activity, pseudovirus) in assay [17] and in [18] was greater than 10 µg/mL each time. The IC50 (commonly the point on the concentration scale where inhibition reaches its midpoint) in [30] was greater than 50 µg/mL. In addition, the IC50, pseudovirus neutralization in assay [20] and in assay [21] was greater than 10 µg/mL in each case.
Substance 5343_B08 (PGT-135) (antibody) registered an EC50 in assay [1] of 0.1 µg/mL. Further, the IC50 (µg/mL), pseudovirus neutralization in [22] is 0.004 µg/mL; in assay [23], greater than 50 µg/mL; in assay [24] it was 23.5 µg/mL; in [25], greater than 50 µg/mL; in assay [28], greater than 50 µg/mL; in assay [31], greater than 50 µg/mL. Besides, the IC50 (µg/mL), pseudovirus neutralization is 0.039 µg/mL in [32]; greater than 50 µg/mL in assay [33]; greater than 50 µg/mL in [34]; greater than 50 µg/mL in [35]; greater than 50 µg/mL in assay [36]; greater than 50 µg/mL in assay [37]. Besides, the IC50 neutralization in [14] is greater than 10 µg/mL; in assay [26], 5.15 µg/mL; in assay [27] it was greater than 50 µg/mL; in [15], greater than 10 µg/mL; in [16], greater than 10 µg/mL; in assay [29] it was greater than 50 µg/mL. The IC50 (neutralizing activity, pseudovirus) in assay [17] and in [18] was greater than 10 µg/mL in each case. The substance further came in with an IC50 in assay [30] of 3.67 µg/mL. The IC50, pseudovirus neutralization in assay [20] and in [21] was greater than 10 µg/mL throughout.
